Test results published in patent publication US20030203415A1 (published 2003).
Where “and” joins values, the source holds several entries; their conditions need not be identical. Identical values can stand only once. Ends that are not written are not given here. fluorescein = fluorescein label attached through NHS-fluorescein to the ε-amino side group of the C-terminal lysine

Columns and labels:
[1] = biological target: T1, human serum albumin (HSA) (human, UniProt P02768 25-609); test: phage ELISA on immobilized HSA
T1 construct: control target

H6NA3 [2] = biological target: T2, H6NA3 (UniProt P06731 35-144; P06731 499-590, limits assumed); test: fluorescence anisotropy, direct binding
T2 construct: domain: N domain;domain: A3 domain; recombinant truncated target
T2 sequence: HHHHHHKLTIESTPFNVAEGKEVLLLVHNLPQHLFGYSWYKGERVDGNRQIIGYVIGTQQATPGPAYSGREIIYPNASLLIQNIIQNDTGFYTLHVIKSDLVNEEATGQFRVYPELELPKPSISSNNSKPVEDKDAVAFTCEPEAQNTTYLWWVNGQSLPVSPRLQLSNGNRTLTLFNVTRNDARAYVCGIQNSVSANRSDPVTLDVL
Method: (§1) Dissociation constants were determined using fluorescence anisotropy, through direct binding measurements and competition experiments. In direct binding assays, the concentration of the fluorescein-labeled peptide is held constant and the concentration of H6NA3 is varied. In the competition experiment, the concentration of the fluorescein-labeled peptide and the H6NA3 target are held constant and the concentration of a competitor (cT84.66, unlabeled) is varied. The change in anisotropy is fit to the appropriate equation via nonlinear regression to obtain the apparent Kd.

H6NA3 [3] = biological target: T2, H6NA3; test: fluorescence anisotropy, direct binding; remark: listed apart in the source
H6NA3 [4] = biological target: T2, H6NA3; test: fluorescence anisotropy, competition with peptide from Isolate 12-H12 (replicate)
Method: (§2) Dissociation constants were determined using fluorescence anisotropy, through direct binding measurements to either NA-3 or CEA in PBS with 0.01% TWEEN 20. In direct binding assays, the concentration of the fluorescein-labeled peptide is held constant and the concentration of NA3 is varied. In the competition experiment, the concentration of the fluorescein-labeled peptide and the NA3 target are held constant and the concentration of competitor peptide (from Isolate 12-H12) is varied. The change in anisotropy is fit to the appropriate equation via nonlinear regression to obtain the apparent Kd. […] Replicate analyses were run for certain binders and are reported to confirm accuracy and precision of measurements. KD standard error values are calculated from the nonlinear regression (SIGMAPLOT, SPSS Science, Chicago, Ill.).

H6NA3 [5] = biological target: T2, H6NA3; test: fluorescence anisotropy, competition with peptide from Isolate 12-H12
Method: as §2

[6] = biological target: T3, carcinoembryonic antigen (CEA) (UniProt P06731 35-685, limits assumed); test: fluorescence anisotropy, direct binding
T3 sequence (looked up): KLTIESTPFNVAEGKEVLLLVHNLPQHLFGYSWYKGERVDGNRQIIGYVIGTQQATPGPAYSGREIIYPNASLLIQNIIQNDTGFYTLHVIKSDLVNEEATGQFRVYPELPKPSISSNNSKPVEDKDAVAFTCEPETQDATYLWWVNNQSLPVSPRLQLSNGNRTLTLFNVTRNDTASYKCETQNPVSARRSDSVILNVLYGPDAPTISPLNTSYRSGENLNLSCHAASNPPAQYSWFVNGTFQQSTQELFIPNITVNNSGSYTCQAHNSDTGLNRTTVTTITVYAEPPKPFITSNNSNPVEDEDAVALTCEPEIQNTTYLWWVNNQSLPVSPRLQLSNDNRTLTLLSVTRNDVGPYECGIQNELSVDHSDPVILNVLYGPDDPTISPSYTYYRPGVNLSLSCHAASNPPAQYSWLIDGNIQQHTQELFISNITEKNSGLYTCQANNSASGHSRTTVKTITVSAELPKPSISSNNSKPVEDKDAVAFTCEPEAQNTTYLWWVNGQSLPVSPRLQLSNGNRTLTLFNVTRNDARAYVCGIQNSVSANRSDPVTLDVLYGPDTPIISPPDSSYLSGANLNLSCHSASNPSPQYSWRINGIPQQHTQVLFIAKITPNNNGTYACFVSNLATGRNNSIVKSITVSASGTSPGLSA
Method: as §2

H6NA3 [7] = biological target: T2, H6NA3; test: fluorescence anisotropy, direct binding; remark: listed apart in the source
Method: as §2

H6NA3 [8] = biological target: T2, H6NA3; test: fluorescence anisotropy, direct binding (replicate)
Method: as §2

H6NA3 [9] = biological target: T2, H6NA3; test: fluorescence anisotropy, direct binding; remark: listed apart in the source
H6NA3 [10] = biological target: T2, H6NA3; test: fluorescence anisotropy, direct binding; remark: listed apart in the source
Method: as §1
Dissociation constants were determined using fluorescence anisotropy, through direct binding measurements (see Example 6).

H6NA3 [11] = biological target: T2, H6NA3; test: fluorescence anisotropy, competition with unlabeled cT84.66
Method: as §1

H6NA3 [12] = biological target: T2, H6NA3; test: fluorescence anisotropy
Method: as §1

T1 sequence (P02768 25-609 limits assumed): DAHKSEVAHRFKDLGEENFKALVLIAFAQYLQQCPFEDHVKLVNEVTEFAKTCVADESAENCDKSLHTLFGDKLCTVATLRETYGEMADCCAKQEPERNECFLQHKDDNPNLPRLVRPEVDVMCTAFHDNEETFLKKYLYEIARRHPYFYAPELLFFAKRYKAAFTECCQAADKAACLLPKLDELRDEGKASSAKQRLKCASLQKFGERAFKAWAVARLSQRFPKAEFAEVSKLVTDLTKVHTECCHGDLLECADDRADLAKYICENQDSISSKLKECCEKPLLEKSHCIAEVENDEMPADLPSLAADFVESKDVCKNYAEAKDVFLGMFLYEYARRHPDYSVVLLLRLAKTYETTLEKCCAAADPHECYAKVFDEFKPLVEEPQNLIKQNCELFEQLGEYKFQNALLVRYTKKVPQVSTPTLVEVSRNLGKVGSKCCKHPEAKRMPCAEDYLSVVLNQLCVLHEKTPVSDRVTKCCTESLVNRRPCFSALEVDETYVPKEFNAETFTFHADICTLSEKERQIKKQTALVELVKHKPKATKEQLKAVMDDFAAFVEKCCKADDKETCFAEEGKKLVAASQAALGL

## NWRCKLFPRYPYCSSW (also called TN10/9 Isolate G01) [G01]
[1]
  binding result: no binding

B1: P-G08 (peptide)
peptide: SNWVCNLFKNQWFCNSYAPGGEGGGSK(fluorescein)-NH2
modifications: not fully specified (bridges); printed as SNWVCNLFKNQWFCNSYAPGGEGGGSK-CONH2; cysteine pairing not given here; also: fluorescein on C-terminal Lys ε-amino in labelled aliquots
notes: synthetic 27-mer; also called Isolate G08 peptide
H6NA3 [2]
  Kd: 1900 nM

B2: Hybrid H12/A12 (peptide, part only; not given: C-terminal lysine extension, part only)
peptide, part: DWVCEYFKNQWFCDTL
modifications: not fully specified (C-terminus, bridges); cysteine pairing not given here; also: fluorescein on ε-amino of C-terminal lysine, no C-terminal K in given chain
H6NA3 [3]
  Kd: 2800 nM

B3: 315A-17-G08 synthetic peptide (peptide)
peptide: DWVCEFIKSQWFCNVLAPGGEGGGSK(fluorescein)-NH2
modifications: not fully specified (bridges); cysteine pairing not given here; also: fluorescein on C-terminal Lys ε-amino in labelled aliquots
notes: synthetic
H6NA3 [4]
  Kd: 160 nM
H6NA3 [5]
  Kd: 160 nM
[6]
  Kd: 1600 nM
H6NA3 [7]
  Kd: 270 nM

B4: 315A-17-B01 synthetic peptide (peptide)
peptide: DWVCEWLKMQWACNILAPGGEGGGSK(fluorescein)-NH2
modifications: not fully specified (bridges); cysteine pairing not given here; also: fluorescein on C-terminal Lys ε-amino in labelled aliquots
notes: synthetic
H6NA3 [4]
  Kd: 1200 nM
H6NA3 [5]
  Kd: 900 nM
H6NA3 [7]
  Kd: 950 nM

B5: 304A-12-H12 synthetic peptide (peptide)
peptide: DWVCEYFKNQWFCNVLAPGGEGGGSK-NH2
modifications: not fully specified (residue 26, bridges); cysteine pairing not given here; also: fluorescein only on labelled aliquots
notes: synthetic; also called DX306
H6NA3 [8]
  Kd: 220 nM
H6NA3 [4]
  Kd: 240 nM
H6NA3 [5]
  Kd: 340 nM
[6]
  Kd: 3700 nM
H6NA3 [7]
  Kd: 300 nM
H6NA3 [9]
  fold increase in affinity compared to the Isolate G08 peptide: 8 fold
H6NA3 [10]
  Kd: 240 nM

B6: P-A07 (peptide)
peptide: SDWVCENKKDQWTCNLLAPGGEGGGSK(fluorescein)-NH2
modifications: not fully specified (bridges); printed as SDWVCENKKDQWTCNLLAPGGEGGGSK-CONH2; cysteine pairing not given here; also: fluorescein on C-terminal Lys ε-amino in labelled aliquots
notes: synthetic 27-mer
H6NA3 [2]
  Kd: 5900 nM
H6NA3 [11]
  Kd: 3600 nM

## DWVCENKKDQWTCNLL (not fully specified (bridges); cysteine pairing not given here, also called TN10/9 Isolate A07) [AB-A07]
[1]
  binding result: no binding

## NWVCNLFKNQWFCNSY (also called TN10/9 Isolate G08) [FX-G08]
[1]
  binding result: no binding

## DWVCNFDQGLAHCFPS (not fully specified (bridges); cysteine pairing not given here) [TN10/9-D04]
[1]
  binding result: no binding

B7: 315A-18-E02 synthetic peptide (peptide)
peptide: DWVCEFFKDQWFCNILAPGGEGGGSK(fluorescein)-NH2
modifications: not fully specified (bridges); cysteine pairing not given here; also: fluorescein on C-terminal Lys ε-amino in labelled aliquots
notes: synthetic
H6NA3 [4]
  Kd: 290 nM and 220 nM and 140 nM
H6NA3 [5]
  Kd: 310 nM
[6]
  Kd: 2600 nM
H6NA3 [7]
  Kd: 380 nM

## NWFCEMIGRQWGCVPS [TN10/9-F11]
[1]
  binding result: no binding

B8: P-E01 (peptide)
peptide: SNWDCMFGAEGWACSPWAPGGEGGGSK(fluorescein)-NH2
modifications: not fully specified (bridges); printed as SNWDCMFGAEGWACSPWAPGGEGGGSK-CONH2; cysteine pairing not given here; also: fluorescein on C-terminal Lys ε-amino in labelled aliquots
notes: synthetic 27-mer
H6NA3 [2]
  Kd: 6900 nM
H6NA3 [11]
  Kd: 5300 nM
H6NA3 [12]
  Kd: 7000 nM

B9: 315A-18-E01 synthetic peptide (peptide)
peptide: DWVCEIVKNQWICNPLAPGGEGGGSK(fluorescein)-NH2
modifications: not fully specified (bridges); cysteine pairing not given here; also: fluorescein on C-terminal Lys ε-amino in labelled aliquots
notes: synthetic
H6NA3 [4]
  Kd: 490 nM and 170 nM
H6NA3 [5]
  Kd: 230 nM
H6NA3 [7]
  Kd: 870 nM

B10: 304A-14-A12 synthetic peptide (peptide, part only; not given: C-terminal lysine extension, part only)
peptide, part: DWVCNLFKNQWFCDTL
modifications: not fully specified (C-terminus, bridges); cysteine pairing not given here; also: fluorescein on ε-amino of C-terminal lysine, no C-terminal K in given chain
H6NA3 [3]
  Kd: 640 nM

## RYCEFFPWSLHCGRP (also called TN10/9 Isolate B10) [B10]
[1]
  binding result: no binding

## NWDCMFGAEGWACSPW (not fully specified (bridges); cysteine pairing not given here) [TN10/9-E01]
[1]
  binding result: no binding

B11: P-B09 (peptide)
peptide: SDWVCELTTGGYVCQPLAPGGEGGGSK(fluorescein)-NH2
modifications: not fully specified (bridges); printed as SDWVCELTTGGYVCQPLAPGGEGGGSK-CONH2; cysteine pairing not given here; also: fluorescein on C-terminal Lys ε-amino in labelled aliquots
notes: synthetic 27-mer
H6NA3 [2]
  Kd: 6000 nM
H6NA3 [11]
  Kd: 1000 nM

B12: 315A-17-B12 synthetic peptide (peptide)
peptide: DWVCEWLKPQWYCNSLAPGGEGGGSK(fluorescein)-NH2
modifications: not fully specified (bridges); cysteine pairing not given here; also: fluorescein on C-terminal Lys ε-amino in labelled aliquots
notes: synthetic
H6NA3 [5]
  Kd: 650 nM
[6]
  binding result: no binding
H6NA3 [7]
  Kd: 1800 nM
